Measurements: paper PMC10571791

Assays:
[1] = cell-surface flow cytometry, MCF-7
[2] = cell-surface flow cytometry, MDA-MB-231
[3] = glycan lost, control: WT-PD-L1 MCF-7 cells
[4] = glycan lost, control: WT-PD-L1 MDA cells

In the case of PD-L1: kifunensine, the expression_or_secretion ([1]; glycan changed form, control: vehicle-treated WT-PD-L1 MCF-7 cells) was “no change” and the expression_or_secretion ([2]; glycan changed form, control: vehicle-treated WT-PD-L1 MDA cells) was “no change”.
With PD-L1: N192A-PD-L1 the expression_or_secretion [1, 3] was “no change” and the expression_or_secretion [2, 4] was “no change”.
In the case of PD-L1: N200A-PD-L1, the expression_or_secretion [1, 3] was “no change” and the expression_or_secretion [2, 4] was “no change”.
With PD-L1: N219A-PD-L1 the expression_or_secretion [1, 3] was “no change” and the expression_or_secretion [2, 4] was “no change”.
With PD-L1: N35A-PD-L1 the expression_or_secretion [1, 3] was “no change” and the expression_or_secretion [2, 4] was “no change”.
